According to paper PMC7449243, “An optimized integrin α6‐targeted peptide for positron emission tomography/magnetic resonance imaging of pancreatic cancer and its precancerous lesion” (Clinical and Translational Medicine, 2020):
Positions of bridges follow the written chain, without caps; N, C: chain ends. Residues, ends and D or L forms follow the SMILES beside them. *: point of attachment. NOTA = O=C(O)CN1CCN(CC(=O)O)CCN(CC(=O)*)CC1; PEG4 = NCCOCCOCCOCCOCCC(=O)O

Columns and labels:
[1] = tested on: Sw1990 tumors; test: In vivo blocking assay of Cy5‐RWY by unlabeled peptides; conditions: i.v. 6 nmol Cy5‐RWY together with 6 μmol unlabeled peptide; mice bearing Sw1990 tumors
Description: FIGURE 1 Increased and poorer prognosis of integrin α6 in PDAC and the optimization of a peptide targeting integrin α6. […] D, The binding affinities of seven Ala‐mutated peptides were analyzed by ELISA. E, The in vivo blocking assays were performed via intravenous injection of 6 nmol of Cy5‐RWY together with 6 μmol of the unlabeled RWY peptide, or its scrambled peptide or a set of its alanine‐scanning mutant peptides into mice bearing Sw1990 tumors. […] F and G, Sw1990 cells were incubated with Cy5‐RWY and Cy5‐S5 at 37°C for 30 min, and the integrin α6‐binding affinities of Cy5‐RWY and Cy5‐S5 were analyzed by flow cytometric analysis (F); the fluorescence intensity of the S5 group presented as relative (1.41 ± 0.03) fold over RWY, indicating a higher tumor cell‐binding ability of S5. H and I To further investigate the in vivo tumor‐binding ability of the S5 peptide, Cy5‐S5, Cy5‐RWY, and Cy5‐CG7C (negative control) were synthesized and used in NIRF.

[2] = biological target: T1, integrin α6 (Homo sapiens, UniProt P23229); test: Binding of Ala-mutated peptides by ELISA (alanine scanning of RWY); conditions: relative to RWY peptide; Figure 1D,E (ELISA and in vivo blocking)
T1 sequence (P23229 24-1130): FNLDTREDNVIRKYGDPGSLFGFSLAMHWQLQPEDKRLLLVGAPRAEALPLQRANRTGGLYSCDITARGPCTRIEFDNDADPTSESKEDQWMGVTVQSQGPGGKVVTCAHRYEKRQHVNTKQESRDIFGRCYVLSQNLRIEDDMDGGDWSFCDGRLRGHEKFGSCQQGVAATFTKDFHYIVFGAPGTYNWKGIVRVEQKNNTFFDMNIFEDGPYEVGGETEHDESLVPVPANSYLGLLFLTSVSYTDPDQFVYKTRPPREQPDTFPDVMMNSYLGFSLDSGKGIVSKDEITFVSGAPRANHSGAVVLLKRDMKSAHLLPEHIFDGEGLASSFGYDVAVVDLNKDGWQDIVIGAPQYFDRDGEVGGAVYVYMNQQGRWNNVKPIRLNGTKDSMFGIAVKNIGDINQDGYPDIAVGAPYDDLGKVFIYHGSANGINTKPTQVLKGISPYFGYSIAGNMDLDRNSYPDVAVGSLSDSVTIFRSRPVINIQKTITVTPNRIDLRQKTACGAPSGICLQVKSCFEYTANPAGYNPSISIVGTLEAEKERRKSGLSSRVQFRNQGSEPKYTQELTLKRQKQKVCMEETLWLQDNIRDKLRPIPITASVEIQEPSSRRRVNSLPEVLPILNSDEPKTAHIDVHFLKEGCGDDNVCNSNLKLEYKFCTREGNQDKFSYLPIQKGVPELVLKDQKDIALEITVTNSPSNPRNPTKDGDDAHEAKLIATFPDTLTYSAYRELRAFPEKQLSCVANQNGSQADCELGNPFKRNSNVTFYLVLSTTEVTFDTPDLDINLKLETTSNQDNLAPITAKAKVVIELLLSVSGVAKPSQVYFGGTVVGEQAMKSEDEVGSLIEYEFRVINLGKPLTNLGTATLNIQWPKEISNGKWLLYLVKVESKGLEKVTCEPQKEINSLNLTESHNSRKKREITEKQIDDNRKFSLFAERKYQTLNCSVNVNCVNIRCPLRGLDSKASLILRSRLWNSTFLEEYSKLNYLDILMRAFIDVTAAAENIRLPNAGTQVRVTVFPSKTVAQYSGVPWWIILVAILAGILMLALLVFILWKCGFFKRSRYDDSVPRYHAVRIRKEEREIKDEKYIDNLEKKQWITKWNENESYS
Description: We selected integrin α6 as the target of PDAC as it was overexpressed in pancreatic cancer cells ^4 , ^5 and cancerous tissue of patients with PDAC ^4 , ^6 , ^7 with an overexpression rate up to 92%. ^4 Increased integrin α6 levels were associated with stronger PDAC cell invasiveness ^5 and poorer prognosis for patients. ^6 , ^7 Furthermore, the integrin α6β4 dimer was overexpressed in PanIN even at a stage as early as PanIN 1A. ^4 Here, we confirmed that integrin α6 was overexpressed in human PDAC (Figure 1A,B) and increased integrin α6 had poorer prognosis for PDAC patients (Figure 1C). Recently, a peptide CRWYDENAC (dubbed RWY) targeting integrin α6 has been identified ^8 and employed for nanotherapeutics of nasopharyngeal carcinoma ^8 and for PET imaging of hepatocellular carcinoma by our team. ^9 Here, we used the Ala scanning mutagenesis to modify the RWY peptide. R, W, and Y were the three key amino acids within the RWY peptide, since their replacement by an alanine reduced the cellular binding ability of this peptide, both in vitro and in vivo. […]
FIGURE 1 Increased and poorer prognosis of integrin α6 in PDAC and the optimization of a peptide targeting integrin α6. […] D, The binding affinities of seven Ala‐mutated peptides were analyzed by ELISA. […]

[3] = in vivo
Description: (§1) Approximately 3.7 × 10^6 Bq (100 μCi) of ^18F‐S5 was intravenously injected to a mouse for PET imaging, and 2.5 mmol/kg of gadolinium‐diethylenetriamine pentaacetic acid was injected for enhanced MR imaging. After 120 min postinjection of ^18F‐S5, PET/MR imaging was obtained by using a hybrid 3.0T PET/MR scanner (uPMR 790; UIH, Shanghai, China).

[4] = tested on: spontaneously developed PDAC; test: in vivo; assay type: in vivo, mouse; conditions: KPC mouse, PET 120 min postinjection; n = 5, mean ± SD
Description: as §1
(§2) However, in the PET/MR imaging, ^18F‐S5 produced high PET signals in the possible location of the tumor (Figure 2A). The uptake of ^18F‐S5 in tumor was quantified as 4.34 ± 1.16 %ID/g (a percentage of the injected dose per gram) (n = 5) and the tumor‐to‐muscle ratio was 4.32 ± 0.65 (Figure 2B). […] The overexpression of integrin α6 in the spontaneously developed PDAC tissue was confirmed using immunohistochemistry (Figure 2D). In addition, ^18F‐S5‐PET/MR imaging could also detect metastatic tumors in KPC, where ^18F‐S5 produced high PET signals in both of the PDAC lesions and the metastatic tumors in the abdominal cavity (Figure S4A‐D). […] Immunohistochemical analysis confirmed the formation of PanIN lesions in the pancreas and increased integrin α6 expression in lesion tissues (Figure 2H).
(§3) FIGURE 2 ^18F‐S5 PET/MR imaging in PDAC and PanIN mouse models. A, Representative cross‐sectional images of PET/MR imaging with ^18F‐S5 of KPC mouse (left) and the 3D image (right). B, Quantification of ^18F‐S5 uptake (%ID/g) by KPC mouse in tumor (4.34 ± 1.16), muscle (1.00 ± 0.17), liver (1.24 ± 0.33), and heart (2.38 ± 0.45), respectively. […] D, The development of PDAC in KPC mouse was confirmed by HE staining (left), and increased integrin α6 expression was confirmed by immunohistochemistry (right). E, Representative cross‐sectional images of PET/MR imaging of KC mouse (left) and the MIP reconstructed image (right). F, Quantification of ^18F‐S5 uptake (%ID/g) by KC mouse in PanIN tissue (2.99 ± 0.52), muscle (0.89 ± 0.13), liver (1.31 ± 0.22), and heart (2.43 ± 0.35), respectively. […] H, The development of PanIN in mice was confirmed by HE staining (left), and the overexpression of integrin α6 in the lesion was analyzed using immunohistochemistry (right) (red arrow: PanIN; black arrow: relatively normal pancreatic tissue) (mean ± SD, the difference was evaluated by Student's t‐test, *P < .05, **P < .01, ***P < .001)

[5] = tested on: PanIN; test: in vivo; assay type: in vivo, mouse; conditions: KC mouse, PET 120 min postinjection; mean ± SD
Description: as §1, §2, §3

[6] = in vivo; assay type: in vivo, mouse; conditions: mouse, in vivo, iv
Description: as §1, §2, §3

enhanced tumor binding ability [2] | Compound | blocking effect on Cy5‐RWY [1] | uptake in tumor tissues compared with other tissues and organs [3] | uptake in tumor [4] | uptake in PanIN tissue [5] | tissue uptake at 2 h ([6]; KC (LSL-Kras^G12D/+; Pdx1-Cre), uptake in heart) | tissue uptake at 2 h ([6]; KC (LSL-Kras^G12D/+; Pdx1-Cre), uptake in liver) | tissue uptake at 2 h ([6]; KC (LSL-Kras^G12D/+; Pdx1-Cre), uptake in muscle) | tissue uptake at 2 h ([6]; KPC (LSL-Kras^G12D/+; Pdx1-Cre; Trp53^fl/fl), uptake in heart) | tissue uptake at 2 h ([6]; KPC (LSL-Kras^G12D/+; Pdx1-Cre; Trp53^fl/fl), uptake in liver) | tissue uptake at 2 h ([6]; KPC (LSL-Kras^G12D/+; Pdx1-Cre; Trp53^fl/fl), uptake in muscle)
approximately 1.5 fold | CRWYDANAC [S5, peptide …, alanine substitution of E in RWY] | highest blocking effect | – | – | – | – | – | – | – | – | –
– | C[C@@H]1NC(=O)[C@H](CC(N)=O)NC(=O)[C@H](C)NC(=O)[C@H](CC(=O)O)NC(=O)[C@H](Cc2ccc(O)cc2)NC(=O)[C@H](Cc2c[nH]c3ccccc23)NC(=O)[C@H](CCCNC(=N)N)NC(=O)[C@@H](NC(=O)CCOCCOCCOCCOCCNC(=O)CN2CCN(CC(=O)O)CCN(CC(=O)O)CC2)CSSC[C@@H](C(=O)O)NC1=O [^18F‐S5] ({NOTA-PEG4}-CRWYDANAC-OH; disulfide 1-9 (inferred); N-terminus and C-terminus assumed) | – | the highest among all collected tissues and organs except for the kidney | 4.34 ± 1.16 %ID/g | 2.99 ± 0.52 %ID/g | 2.43 ± 0.35 %ID/g | 1.31 ± 0.22 %ID/g | 0.89 ± 0.13 %ID/g | 2.38 ± 0.45 %ID/g | 1.24 ± 0.33 %ID/g | 1 ± 0.17 %ID/g
